Experiments:
HeLa Kyoto [1] = experiment: solubility in G1/S (NP-40 vs SDS abundance) (log2 ratio); higher = more soluble; settings: cell cycle stage: G1/S
HeLa Kyoto [2] = experiment: melting temperature (median over replicates), in situ; higher = more thermally stable
HeLa Kyoto [3] = experiment: solubility change mitosis vs G1/S (difference of NP-40 vs SDS log2 ratios) (log2 ratio difference); higher = more soluble in mitosis
HeLa Kyoto [4] = experiment: thermal stability score vs G1/S (z-score of summed log2 fold changes over temperatures); higher = more thermally stable than in G1/S
[5] = cell cycle stage: early G1 (4.5 h after nocodazole release)
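For melting temperature (median over replicates), in situ in this document: HeLa Kyoto cells synchronized by double thymidine or nocodazole block, proteins quantified by TMT10plex mass spectrometry, three independent biological replicates.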
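For solubility change mitosis vs G1/S (difference of NP-40 vs SDS log2 ratios) in this document: synchronized HeLa Kyoto cells (double thymidine block for G1/S, nocodazole release for mitosis), protein amounts in NP-40 versus SDS lysates quantified by mass spectrometry, three biological replicates.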
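For solubility in G1/S (NP-40 vs SDS abundance) in this document: HeLa Kyoto cells arrested at G1/S by double thymidine block, proteins quantified by TMT10plex mass spectrometry in mild NP-40 versus SDS extracts, three biological replicates.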
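For thermal stability score vs G1/S (z-score of summed log2 fold changes over temperatures) in this document: synchronized HeLa Kyoto cells, proteins quantified by TMT10plex mass spectrometry, three biological replicates, mitosis taken 0.5 h after nocodazole release, G1/S directly after double thymidine block.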

Chain of SAFB2 (chain, as listed by the source): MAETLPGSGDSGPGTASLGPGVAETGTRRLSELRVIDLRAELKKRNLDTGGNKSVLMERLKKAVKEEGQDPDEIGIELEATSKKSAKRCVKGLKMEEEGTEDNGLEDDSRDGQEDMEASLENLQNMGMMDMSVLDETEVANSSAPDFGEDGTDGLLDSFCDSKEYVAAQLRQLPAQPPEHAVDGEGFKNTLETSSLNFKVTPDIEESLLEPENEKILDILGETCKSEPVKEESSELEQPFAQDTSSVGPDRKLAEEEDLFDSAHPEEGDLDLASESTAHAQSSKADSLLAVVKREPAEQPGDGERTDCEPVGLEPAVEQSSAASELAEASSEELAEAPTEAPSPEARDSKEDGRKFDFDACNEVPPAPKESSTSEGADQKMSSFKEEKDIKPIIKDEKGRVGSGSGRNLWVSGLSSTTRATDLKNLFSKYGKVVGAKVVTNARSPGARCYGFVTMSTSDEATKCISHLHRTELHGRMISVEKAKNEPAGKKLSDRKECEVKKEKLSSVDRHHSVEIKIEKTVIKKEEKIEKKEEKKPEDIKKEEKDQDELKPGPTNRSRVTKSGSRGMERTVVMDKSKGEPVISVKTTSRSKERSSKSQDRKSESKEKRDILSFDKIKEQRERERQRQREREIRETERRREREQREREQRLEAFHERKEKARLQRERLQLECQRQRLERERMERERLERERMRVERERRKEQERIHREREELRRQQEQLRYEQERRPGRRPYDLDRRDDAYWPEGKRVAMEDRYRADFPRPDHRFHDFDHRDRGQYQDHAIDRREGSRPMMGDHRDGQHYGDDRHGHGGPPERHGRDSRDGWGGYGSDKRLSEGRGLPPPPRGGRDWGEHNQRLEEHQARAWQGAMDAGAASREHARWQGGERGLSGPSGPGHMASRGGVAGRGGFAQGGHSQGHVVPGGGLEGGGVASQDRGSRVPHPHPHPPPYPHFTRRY

Substance | solubility in G1/S (log2) (HeLa Kyoto [1]) | melting temperature (HeLa Kyoto [2]; cell cycle stage: G1/S) | melting temperature (HeLa Kyoto [2]; cell cycle stage: mitosis) | solubility change mitosis (log2) (HeLa Kyoto [3]) | thermal stability score (HeLa Kyoto [4]; [5]) | thermal stability score (HeLa Kyoto [4]; cell cycle stage: mitosis)
MSENLDNEGPKPMESCGQESSSALSCPTVSVPPAAPAALEEVEKEGAGAATGPGPQPGLYSYIRDDLFTSEIFKLELQNVPRHASFSDVRRFLGRFGLQPHKTKLFGQPPCAFVTFRSAAERDKALRVLHGALWKGRPLSVRLARPKADPMARRRRQEGESEPPVTRVADVVTPLWTVPYAEQLERKQLECEQVLQKLAKEIGSTNRALLPWLLEQRHKHNKACCPLEGVRPSPQQTEYRNKCEFLVGVGVDGEDNTVGCRLGKYKGGTCAVAAPFDTVHIPEATKQVVKAFQEFIRSTPYSAYDPETYTGHWKQLTVRTSRRHQAMAIAYFHPQKLSPEELAELKTSLAQHFTAGPGRASGVTCLYFVEEGQRKTPSQEGLPLEHVAGDRCIHEDLLGLTFRISPHAFFQVNTPAAEVLYTVIQDWAQLDAGSMVLDVCCGTGTIGLALARKVKRVIGVELCPEAVEDARVNAQDNELSNVEFHCGRAEDLVPTLVSRLASQHLVAILDPPRAGLHSKVILAIRRAKNLRRLLYVSCNPRAAMGNFVDLCRAPSNRVKGIPFRPVKAVAVDLFPQTPHCEMLILFERVEHPNGTGVLGPHSPPAQPTPGPPDNTLQETGTFPSS [TRMT2A] | -0.136 | 48.9 °C | 49.8 °C | 0.169 | 2.34 | 3.51
MTRHGKNCTAGAVYTYHEKKKDTAASGYGTQNIRLSRDAVKDFDCCCLSLQPCHDPVVTPDGYLYEREAILEYILHQKKEIARQMKAYEKQRGTRREEQKELQRAASQDHVRGFLEKESAIVSRPLNPFTAKALSGTSPDDVQPGPSVGPPSKDKDKVLPSFWIPSLTPEAKATKLEKPSRTVTCPMSGKPLRMSDLTPVHFTPLDSSVDRVGLITRSERYVCAVTRDSLSNATPCAVLRPSGAVVTLECVEKLIRKDMVDPVTGDKLTDRDIIVLQRGGTGFAGSGVKLQAEKSRPVMQA [NOSIP] | 0.262 | 45.8 °C | 47.8 °C | -0.163 | 4.16 | 6.51
USP16 | -0.321 | 50.4 °C | 49.5 °C | 0.122 | -0.114 | 0.382
MEKARRGGDGVPRGPVLHIVVVGFHHKKGCQVEFSYPPLIPGDGHDSHTLPEEWKYLPFLALPDGAHNYQEDTVFFHLPPRNGNGATVFGISCYRQIEAKALKVRQADITRETVQKSVCVLSKLPLYGLLQAKLQLITHAYFEEKDFSQISILKELYEHMNSSLGGASLEGSQVYLGLSPRDLVLHFRHKVLILFKLILLEKKVLFYISPVNKLVGALMTVLSLFPGMIEHGLSDCSQYRPRKSMSEDGGLQESNPCADDFVSASTADVSHTNLGTIRKVMAGNHGEDAAMKTEEPLFQVEDSSKGQEPNDTNQYLKPPSRPSPDSSESDWETLDPSVLEDPNLKEREQLGSDQTNLFPKDSVPSESLPITVQPQANTGQVVLIPGLISGLEEDQYGMPLAIFTKGYLCLPYMALQQHHLLSDVTVRGFVAGATNILFRQQKHLSDAIVEVEEALIQIHDPELRKLLNPTTADLRFADYLVRHVTENRDDVFLDGTGWEGGDEWIRAQFAVYIHALLAATLQLDNEKILSDYGTTFVTAWKNTHNYRVWNSNKHPALAEINPNHPFQGQYSVSDMKLRFSHSVQNSERGKKIGNVMVTTSRNVVQTGKAVGQSVGGAFSSAKTAMSSWLSTFTTSTSQSLTEPPDEKP [AVL9] | 0.0785 | 54.3 °C | 54.1 °C | -0.155 | 0.365 | 0.676
MAAVLNAERLEVSVDGLTLSPDPEERPGAEGAPLLPPPLPPPSPPGSGRGPGASGEQPEPGEAAAGGAAEEARRLEQRWGFGLEELYGLALRFFKEKDGKAFHPTYEEKLKLVALHKQVLMGPYNPDTCPEVGFFDVLGNDRRREWAALGNMSKEDAMVEFVKLLNRCCHLFSTYVASHKIEKEEQEKKRKEEEERRRREEEERERLQKEEEKRRREEEERLRREEEERRRIEEERLRLEQQKQQIMAALNSQTAVQFQQYAAQQYPGNYEQQQILIRQLQEQHYQQYMQQLYQVQLAQQQAALQKQQEVVVAGSSLPTSSKVNATVPSNMMSVNGQAKTHTDSSEKELEPEAAEEALENGPKESLPVIAAPSMWTRPQIKDFKEKIQQDADSVITVGRGEVVTVRVPTHEEGSYLFWEFATDNYDIGFGVYFEWTDSPNTAVSVHVSESSDDDEEEEENIGCEEKAKKNANKPLLDEIVPVYRRDCHEEVYAGSHQYPGRGVYLLKFDNSYSLWRSKSVYYRVYYTR [ACBD3] | -0.138 | 50.4 °C | 50.2 °C | -0.137 | -1.26 | -0.756
MAAEPLTELEESIETVVTTFFTFARQEGRKDSLSVNEFKELVTQQLPHLLKDVGSLDEKMKSLDVNQDSELKFNEYWRLIGELAKEIRKKKDLKIRKK [S100A13] | -0.421 | 53.4 °C | 52 °C | 0.294 | -6.56 | -6.62
MPLLTQQIQDEDDQYSLVASLDNVRNLSTILKAIHFREHATCFATKNGIKVTVENAKCVQANAFIQAGIFQEFKVQEESVTFRINLTVLLDCLSIFGSSPMPGTLTALRMCYQGYGYPLMLFLEEGGVVTVCKINTQEPEETLDFDFCSTNVINKIILQSEGLREAFSELDMTSEVLQITMSPDKPYFRLSTFGNAGSSHLDYPKDSDLMEAFHCNQTQVNRYKISLLKPSTKALVLSCKVSIRTDNRGFLSLQYMIRNEDGQICFVEYYCCPDEEVPESES [RAD1] | -0.0871 | 51.4 °C | 51.2 °C | -0.225 | 2.13 | 0.628
MSEAPRFFVGPEDTEINPGNYRHFFHHADEDDEEEDDSPPERQIVVGICSMAKKSKSKPMKEILERISLFKYITVVVFEEEVILNEPVENWPLCDCLISFHSKGFPLDKAVAYAKLRNPFVINDLNMQYLIQDRREVYSILQAEGILLPRYAILNRDPNNPKECNLIEGEDHVEVNGEVFQKPFVEKPVSAEDHNVYIYYPTSAGGGSQRLFRKIGSRSSVYSPESNVRKTGSYIYEEFMPTDGTDVKVYTVGPDYAHAEARKSPALDGKVERDSEGKEVRYPVILNAREKLIAWKVCLAFKQTVCGFDLLRANGQSYVCDVNGFSFVKNSMKYYDDCAKILGNIVMRELAPQFHIPWSIPLEAEDIPIVPTTSGTMMELRCVIAVIRHGDRTPKQKMKMEVRHQKFFDLFEKCDGYKSGKLKLKKPKQLQEVLDIARQLLMELGQNNDSEIEENKPKLEQLKTVLEMYGHFSGINRKVQLTYLPHGCPKTSSEEEDSRREEPSLLLVLKWGGELTPAGRVQAEELGRAFRCMYPGGQGDYAGFPGCGLLRLHSTYRHDLKIYASDEGRVQMTAAAFAKGLLALEGELTPILVQMVKSANMNGLLDSDSDSLSSCQQRVKARLHEILQKDRDFTAEDYEKLTPSGSISLIKSMHLIKNPVKTCDKVYSLIQSLTSQIRHRMEDPKSSDIQLYHSETLELMLRRWSKLEKDFKTKNGRYDISKIPDIYDCIKYDVQHNGSLKLENTMELYRLSKALADIVIPQEYGITKAEKLEIAKGYCTPLVRKIRSDLQRTQDDDTVNKLHPVYSRGVLSPERHVRTRLYFTSESHVHSLLSILRYGALCNESKDEQWKRAMDYLNVVNELNYMTQIVIMLYEDPNKDLSSEERFHVELHFSPGAKGCEEDKNLPSGYGYRPASRENEGRRPFKIDNDDEPHTSKRDEVDRAVILFKPMVSEPIHIHRKSPLPRSRKTATNDEESPLSVSSPEGTGTWLHYTSGVGTGRRRRRSGEQITSSPVSPKSLAFTSSIFGSWQQVVSENANYLRTPRTLVEQKQNPTVGSHCAGLFSTSVLGGSSSAPNLQDYARTHRKKLTSSGCIDDATRGSAVKRFSISFARHPTNGFELYSMVPSICPLETLHNALSLKQVDEFLASIASPSSDVPRKTAEISSTALRSSPIMRKKVSLNTYTPAKILPTPPATLKSTKASSKPATSGPSSAVVPNTSSRKKNITSKTETHEHKKNTGKKK [PPIP5K2] | 0.0594 | 52.5 °C | 52.6 °C | -0.068 | 0.0139 | 0.108
MATALSEEELDNEDYYSLLNVRREASSEELKAAYRRLCMLYHPDKHRDPELKSQAERLFNLVHQAYEVLSDPQTRAIYDIYGKRGLEMEGWEVVERRRTPAEIREEFERLQREREERRLQQRTNPKGTISVGVDATDLFDRYDEEYEDVSGSSFPQIEINKMHISQSIEAPLTATDTAILSGSLSTQNGNGGGSINFALRRVTSAKGWGELEFGAGDLQGPLFGLKLFRNLTPRCFVTTNCALQFSSRGIRPGLTTVLARNLDKNTVGYLQWRWGIQSAMNTSIVRDTKTSHFTVALQLGIPHSFALISYQHKFQDDDQTRVKGSLKAGFFGTVVEYGAERKISRHSVLGAAVSVGVPQGVSLKVKLNRASQTYFFPIHLTDQLLPSAMFYATVGPLVVYFAMHRLIIKPYLRAQKEKELEKQRESAATDVLQKKQEAESAVRLMQESVRRIIEAEESRMGLIIVNAWYGKFVNDKSRKSEKVKVIDVTVPLQCLVKDSKLILTEASKAGLPGFYDPCVGEEKNLKVLYQFRGVLHQVMVLDSEALRIPKQSHRIDTDG [DNAJC11] | -0.172 | 52.6 °C | 52.3 °C | -0.0355 | 0.0819 | -0.993
MASGRRAPRTGLLELRAGAGSGAGGERWQRVLLSLAEDVLTVSPADGDPGPEPGAPREQEPAQLNGAAEPGAGPPQLPEALLLQRRRVTVRKADAGGLGISIKGGRENKMPILISKIFKGLAADQTEALFVGDAILSVNGEDLSSATHDEAVQVLKKTGKEVVLEVKYMKDVSPYFKNSTGGTSVGWDSPPASPLQRQPSSPGPTPRNFSEAKHMSLKMAYVSKRCTPNDPEPRYLEICSADGQDTLFLRAKDEASARSWATAIQAQVNTLTPRVKDELQALLAATSTAGSQDIKQIGWLTEQLPSGGTAPTLALLTEKELLLYLSLPETREALSRPARTAPLIATRLVHSGPSKGSVPYDAELSFALRTGTRHGVDTHLFSVESPQELAAWTRQLVDGCHRAAEGVQEVSTACTWNGRPCSLSVHIDKGFTLWAAEPGAARAVLLRQPFEKLQMSSDDGASLLFLDFGGAEGEIQLDLHSCPKTIVFIIHSFLSAKVTRLGLLA [SNTA1] | 0.0927 | 51.2 °C | 49.2 °C | -0.136 | -0.161 | 0.249
MTDYGEEQRNELEALESIYPDSFTVLSENPPSFTITVTSEAGENDETVQTTLKFTYSEKYPDEAPLYEIFSQENLEDNDVSDILKLLALQAEENLGMVMIFTLVTAVQEKLNEIVDQIKTRREEEKKQKEKEAEEAEKQLFHGTPVTIENFLNWKAKFDAELLEIKKKRMKEEEQAGKNKLSGKQLFETDHNLDTSDIQFLEDAGNNVEVDESLFQEMDDLELEDDEDDPDYNPADPESDSAD [RWDD1] | 0.348 | 52.7 °C | 54 °C | 0.0192 | 0.855 | 0.947
SAFB2 | -0.828 | 50.3 °C | 51.4 °C | 0.345 | 0.782 | 0.916
MIWYILIIGILLPQSLAHPGFFTSIGQMTDLIHTEKDLVTSLKDYIKAEEDKLEQIKKWAEKLDRLTSTATKDPEGFVGHPVNAFKLMKRLNTEWSELENLVLKDMSDGFISNLTIQRQYFPNDEDQVGAAKALLRLQDTYNLDTDTISKGNLPGVKHKSFLTAEDCFELGKVAYTEADYYHTELWMEQALRQLDEGEISTIDKVSVLDYLSYAVYQQGDLDKALLLTKKLLELDPEHQRANGNLKYFEYIMAKEKDVNKSASDDQSDQKTTPKKKGVAVDYLPERQKYEMLCRGEGIKMTPRRQKKLFCRYHDGNRNPKFILAPAKQEDEWDKPRIIRFHDIISDAEIEIVKDLAKPRLRRATISNPITGDLETVHYRISKSAWLSGYENPVVSRINMRIQDLTGLDVSTAEELQVANYGVGGQYEPHFDFARKDEPDAFKELGTGNRIATWLFYMSDVSAGGATVFPEVGASVWPKKGTAVFWYNLFASGEGDYSTRHAACPVLVGNKWVSNKWLHERGQEFRRPCTLSELE [P4HA1] | 0.216 | 55.3 °C | 54.1 °C | -0.0564 | 3.59 | 6.2
THADA | -0.395 | 51.6 °C | 50.2 °C | -0.159 | -0.0368 | -1.12
